For the experiment, the system named is clots formed from pooled rabbit plasma with rabbit blood cells. In words: In vitro sonothrombolysis (STBL) of clots with MBs, CPDL, tPA and/or 450 nm StNPs, pulsed 1 MHz ultrasound. The conditions noted are these: pulsed 1 MHz ultrasound 15 min, in bovine calf serum, 0.5 mL/min; control ultrasound alone; 3 μm MBs, 0.1 mg/ml tPA, 0.06% w/V CPDL nanoemulsion. On the procedure: FIG. 1 depicts a graph showing the potentiation of sonothrombolysis (STBL) efficacy by microbubbles (MBs) and/or a nanoemulsion of cyclopentadecanolide with or without tissue plasminogen activator (tPA). […] STBL was performed with fibrin-rich clots (see Example 2) using pulsed, 1 MHz ultrasound for 15 min. The MBs, tPA, StNPs etc. were suspended in bovine calf serum and introduced at a flow rate of 0.5 mL/min. STBL efficacy is reported as % clot lysis. Abbreviations: US=ultrasound; MBs=microbubbles; CPDL=cyclopentadecanolide; StNPs=starch nanoparticles; tPA=tissue plasminogen activator.
The clots used in these experiments were formed by mixing pooled rabbit plasma with rabbit blood cells (final volume equal to 2 mL; the volume of whole rabbit blood from which the cells were obtained), incubating this mixture for 24 h at 37° C. and then curing the formed clots for 24 h at 5° C. […] The StNPs were diluted to have an Optical Density reading at 530 nm (OD530) of 1.0. […] STBL efficacy was measured as the percent of the initial clot mass that was lost from the clot during the 15 min treatment time.

B1: tissue plasminogen activator (protein, UniProt P00750 36-562, looked up)
Tissue-type plasminogen …: SYQVICRDEKTQMIYQQHQSWLRPVLRSNRVEYCWCNSGRAQCHSVPVKSCSEPRCFNGGTCQQALYFSDFVCQCPEGFAGKCCEIDTRATCYEDQGISYRGTWSTAESGAECTNWNSSALAQKPYSGRRPDAIRLGLGNHNYCRNPDRDSKPWCYVFKAGKYSSEFCSTPACSEGNSDCYFGNGSAYRGTHSLTESGASCLPWNSMILIGKVYTAQNPSAQALGLGKHNYCRNPDGDAKPWCHVLKNRRLTWEYCDVPSCSTCGLRQYSQPQFRIKGGLFADIASHPWQAAIFAKHRRSPGERFLCGGILISSCWILSAAHCFQERFPPHHLTVILGRTYRVVPGEEEQKFEVEKYIVHKEFDDDTYDNDIALLQLKSDSSRCAQESSVVRTVCLPPADLQLPDWTECELSGYGKHEALSPFYSERLKEAHVRLYPSSRCTSQHLLNRTVTDNMLCAGDTRSGGPQANLHDACQGDSGGPLVCLNDGRMTLVGIISWGLGCGQKDVPGVYTKVTNYLDWIRDNMRP
notes: thrombolytic agent, used at 0.1 mg/ml
On to B1, for which the “STBL efficacy (FIG. 1), in words” value is “improved STBL efficacy”.
